± gives the uncertainty stated by the source.

From the supplement of paper PMC12042874 come the findings set out here.

The data set is described as follows: amyloid nucleation score (Sup35N fusion, yeast selection) (log enrichment); library NNK3; higher = more nucleation; inactive = no reads after selection. Put shortly:
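Peptides of 20 random codons, each fused to Sup35N, were expressed in psi-negative yeast. Cells were induced with 100 μM copper sulfate for 24 hours and grown 7 days at 30°C on medium lacking adenine and uracil, and plasmid inserts before and after selection were Illumina-sequenced. Nucleation scores are DiMSum log enrichments of output over input reads, centred on the mode score of non-aggregating sequences, and sequences under 100 input reads were excluded.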
As for HELELRFLSGWSREFLELEG, the amyloid nucleation score entry was “inactive”.

As to HELFRTSHRLRCYFNPHSHI, the amyloid nucleation score entry is “inactive”.

Turning to HELLMVSENVRCDAKSHG, the amyloid nucleation score entry was “inactive”.

For HEMAYVVPTLVYYVYNTNSR, the amyloid nucleation score was -0.076 ± 0.66.

Consider HESKTMRKEEIMYTRWYKVL, for which the amyloid nucleation score result is “inactive”.

With HFETNTVFQVFEICIVSCCY, the amyloid nucleation score was 2.34 ± 0.067.

As to HFILVNIAFLVTDPHWLVRV, the amyloid nucleation score entry was “inactive”.

Consider HFLFRVRRGTWK, for which the amyloid nucleation score was 0.396 ± 0.34.

For HFMFGYGCTRSGQTRSPGFN, the amyloid nucleation score was found to be 1.88 ± 0.11.

On to HFQMRAERDESSNRPYSSFG, for which the amyloid nucleation score entry is “inactive”.

As to HFRDAVGWGFINGCHPAGSG, the amyloid nucleation score entry was “inactive”.

For the substance HFSSYDTDRINAVPKIWTIR, the amyloid nucleation score result was “inactive”.

On to HFVLCDHYVR, for which the amyloid nucleation score entry was “inactive”.

As to HFVTDDNGGICDVDNV, the amyloid nucleation score result is “inactive”.

For the substance HFYRLAYTSISWVYRSLGAE, the amyloid nucleation score entry is “inactive”.

HGCWKQPDQVVLLWSHRFFR: the amyloid nucleation score result is “inactive”.

Regarding HGCYFYYSCTFYC, the amyloid nucleation score came to 3.29 ± 0.08.

For HGERSDKMLDSGSPYMAPSG, the amyloid nucleation score entry is “inactive”.

HGFLFCGFSNYKCVQGNMTF: the amyloid nucleation score result is “inactive”.

HGFSMTFRLLTFFHGKNYCM: the amyloid nucleation score entry was “inactive”.

With HGHSQFL, the amyloid nucleation score result is “inactive”.

HGMGYRAIFIFNLISQPRLE came in with an amyloid nucleation score of 2.52 ± 0.078.

On to HGMTIMLGVGWYLWDGSTEG, for which the amyloid nucleation score is 0.657 ± 0.16.

Regarding HGPAMTSRSRNTSVLVLVSP, the amyloid nucleation score result was “inactive”.

As for HICIMNMLRFRCIWIPIFYM, the amyloid nucleation score entry is “inactive”.

As for HIFSKVSYNFEFPRNDCCRY, the amyloid nucleation score entry is “inactive”.

HISCMCLIYIV: the amyloid nucleation score turned out to be 2.24 ± 0.088.

Regarding HIVNLFRLYYIAMWGSVCHV, the amyloid nucleation score entry is “inactive”.

Turning to HIVSSAMSVT, the amyloid nucleation score result is “inactive”.

Consider HIWTIRVMFWRELRLLITPI, for which the amyloid nucleation score result was “inactive”.

With HKCGQDFYR, the amyloid nucleation score entry is “inactive”.

For HKCMCVY, the amyloid nucleation score entry is “inactive”.

As to HKMDWYIGLFRLMHTVAVLM, the amyloid nucleation score entry was “inactive”.

Take HKMRRAYLKECFVWDYVSCD: the amyloid nucleation score result is “inactive”.

On to HKWGCGL, for which the amyloid nucleation score was -0.539 ± 1.5.

Take HKYSEGSLNTFRRLRRSRFS: the amyloid nucleation score entry is “inactive”.

HLFINL: the amyloid nucleation score entry is “inactive”.

On to HLKCPRERLT, for which the amyloid nucleation score entry is “inactive”.

HLNYYGAL: the amyloid nucleation score entry was “inactive”.

HLRLRRTFGINLH: the amyloid nucleation score entry was “inactive”.

Turning to HLSLRNNNAPDYPSGNSFWE, the amyloid nucleation score entry is “inactive”.

For the substance HLSPVNSK, the amyloid nucleation score result is “inactive”.

On to HLVKEGDNTMVGGYPFQWMT, for which the amyloid nucleation score result is “inactive”.

As for HLVRCNDRSNLRESGPS, the amyloid nucleation score result was “inactive”.

In the case of HLYDKSMNVGSRSARAELSM, the amyloid nucleation score result was “inactive”.

As for HLYLSSVENLKHLFKGVSVH, the amyloid nucleation score is -0.381 ± 0.9.

For the substance HMMTRAASVSLSVQQ, the amyloid nucleation score result is “inactive”.

For the substance HMPVSIFSAFVYMTQNHAIG, the amyloid nucleation score worked out at 1.75 ± 0.062.

Consider HMQTGDDRLMQAAYMHLEHI, for which the amyloid nucleation score result was “inactive”.

With HMSSLITVS, the amyloid nucleation score entry is “inactive”.

HMWLFKIQDLMLAHPITGSW: the amyloid nucleation score result is “inactive”.

HNILFSDLGFYRSYYNADSM: the amyloid nucleation score result is “inactive”.

In the case of HNISAIYDRNRF, the amyloid nucleation score entry was “inactive”.

HNKAETTPLSHCMQSSSKLL: the amyloid nucleation score entry is “inactive”.

HNNIAFSLVVNDESVLWCFN gave an amyloid nucleation score of 1.97 ± 0.053.

Substance HNRRKR yielded an amyloid nucleation score of -0.16 ± 0.4.

Turning to HNVAYCSGGFCDPYSNFREG, the amyloid nucleation score entry was “inactive”.

As to HPIANVV, the amyloid nucleation score result is “inactive”.

Regarding HQSISGWLVRGLTAGSGAVC, the amyloid nucleation score is -0.496 ± 0.96.

As to HQTLKSQD, the amyloid nucleation score entry was “inactive”.

For the substance HQVGYGLHGPG, the amyloid nucleation score was -0.539 ± 0.96.

On to HQYWEGCSMLYL, for which the amyloid nucleation score entry was “inactive”.

For the substance HRAPMSHPVCLMIKWLLWVL, the amyloid nucleation score entry is “inactive”.

Regarding HRFSVWSEYCILIFRLQHRP, the amyloid nucleation score result is “inactive”.

For the substance HRLVRLSVRMSRRTYS, the amyloid nucleation score result was “inactive”.

In the case of HRYYYFF, the amyloid nucleation score was 1.83 ± 0.093.

Take HSFIDERWSLYYERVLVYTG: the amyloid nucleation score result is “inactive”.

On to HSRMWVTGLVSCVSGYMQVV, for which the amyloid nucleation score result was “inactive”.

Take HSTTSLWSVVSVQSKTFMLK: the amyloid nucleation score result is “inactive”.

For the substance HSVIIAAMLSEISVSGLISG, the amyloid nucleation score result was “inactive”.

Regarding HTGHHWNRLHETQNSRL, the amyloid nucleation score entry is “inactive”.

As for HTRWLGYNSHRGYLFLMSKF, the amyloid nucleation score was determined as 0.104 ± 0.9.

Take HTVLILVCAFKNAG: the amyloid nucleation score entry was “inactive”.

With HTYLFRSMS, the amyloid nucleation score entry is “inactive”.

Regarding HVAKVGTFNWTHNGYDNCFV, the amyloid nucleation score result was “inactive”.

On to HVCHKTYLSLKLHKLDFFYS, for which the amyloid nucleation score is 0.391 ± 0.17.

On to HVFYIVYSFISLRNHVAYLS, for which the amyloid nucleation score entry was “inactive”.

As for HVLNEWKSNTGLVVSSAWFC, the amyloid nucleation score came out at 1.43 ± 0.087.

HVLSVQTLYLFCKGLKESGT displayed an amyloid nucleation score of 0.809 ± 0.16.

HVNLIDTKNSLMQMLN: the amyloid nucleation score entry was “inactive”.

The substance HVNMSNIVLVLFSNSFNMHE had an amyloid nucleation score of 1.75 ± 0.082.

As to HVVGQDIRV, the amyloid nucleation score result was “inactive”.

In the case of HVVIARTNRGDYNCFSSDGG, the amyloid nucleation score result is “inactive”.

With HVVKSRSGLIMVWRPLL, the amyloid nucleation score is -0.65 ± 1.1.

Consider HWMVSCYFSVRLRARLSRRG, for which the amyloid nucleation score result was “inactive”.

Turning to HWTLKMTVQHVFMLGASCRY, the amyloid nucleation score result is “inactive”.

On to HYLQS, for which the amyloid nucleation score result was “inactive”.

HYNSSSFRVGPCVSLGNHTQ: the amyloid nucleation score result is “inactive”.

Take HYRFNNACLDRGHSEGYWRI: the amyloid nucleation score entry is “inactive”.

Take HYVIV: the amyloid nucleation score result is “inactive”.

As for HYYVTVTHGS, the amyloid nucleation score entry was “inactive”.

With IAALNFSCRTLSL, the amyloid nucleation score entry was “inactive”.

As to IADFNSL, the amyloid nucleation score result is “inactive”.

As for IAFEVY, the amyloid nucleation score entry was “inactive”.

As to IAGFRNGSPANNAVGKPG, the amyloid nucleation score entry is “inactive”.

Turning to IAHWAWGMELIIYQIPNHFR, the amyloid nucleation score was 0.407 ± 0.25.

Regarding IAIKNSSRRYMNYERLFTKL, the amyloid nucleation score entry is “inactive”.

IAMSRSACRYVFECYIYFFF: the amyloid nucleation score entry is “inactive”.
